The record followed here is patent US8507651B2, “Treatment of diseases and conditions mediated by increased phosphorylation” (DMI Acquisition Corp., priority 2002, dated 2013).

The assay has as its system IL-8 release by Jurkat cells. Put plainly: Inhibition of IL-8 release from PMA/ionomycin-stimulated Jurkat cells, IL-8 ELISA of supernatants (Example 1). The format is cell-based, human. The following applies: PMA and ionomycin; for IL-8 / Percent Inhibition Of IL-8 Release: 24 hours; for IL-8: positive control 1119.2; for Percent Inhibition Of IL-8 Release: vs positive control; for Inhibition of IL-8 release as compared to the positive control (in words): summary of Table 1. The protocol:
Jurkat cells (American Type Culture Collection (ATCC), Rockville, Md.) were cultured (1×10^6 cells per 0.5 ml culture) in IMDM culture medium (ATCC) containing insulin transferrin selenite solution (ITSS; Sigma) with and without phosvitin or BSA at 37° C., 5% CO2, for 30 minutes. Then, phorbol-12-myristate-13-acetate (PMA; […]; Sigma) and ionomycin ([…]; Sigma) were added to stimulate the cells, and the cells were further cultured at 37° C., 5% CO2, for 24 hours.
Cell culture supernatants were analyzed for IL-8 content by ELISA. The IL-8 ELISA was performed as follows. Anti-human IL-8 antibody (Pierce Endogen, Rockford, Ill.; catalogue number M801-E, lot number CK41959) was diluted to 1 μg/ml in phosphate buffered saline, pH 7.2-7.4, and 100 μl of the diluted antibody was added to each well of Nunc Maxisorb ELISA strip plates. The plates were incubated overnight at room temperature. The liquid was aspirated from the wells, and the plates were blotted on a paper towel. Then, 200 μl of assay buffer (phosphate buffered saline, pH 7.2-7.4, containing 4% BSA) were added to each well, and the plates were incubated for 1 hour at room temperature. The liquid was aspirated from the wells, and the wells were washed 3 times with wash buffer (50 mM Tris, 0.2% Tween-20, pH 7.9-8.1) and were then blotted on a paper towel. Standards and supernatant samples (50 μl/well; standards were diluted in assay buffer) were added to the wells, and the plates were incubated for 1 hour at room temperature with gentle shaking. The liquid was aspirated, the wells were washed 3 times with wash buffer, and the plates were then blotted on a paper towel. Then, 100 μl of biotin-labeled anti-human IL-8 (Pierce Endogen, Rockford, Ill.; catalogue number M802-E, lot number CE49513), diluted to 60 ng/ml in assay buffer, were added to each well. The plates were incubated for 1 hour at room temperature, the liquid was aspirated, the wells were washed 3 times with wash buffer, and the plates were blotted on a paper towel. Then, 100 μl of HRP-conjugated streptavidin (Pierce Endogen, Rockford, Ill.; catalogue number N100) in assay buffer, were added to each well. The plates were incubated for 30 minutes at room temperature, the liquid was aspirated, the wells were washed 3 times with wash buffer, and the plates were blotted on a paper towel. Finally, 100 μl of TMB substrate solution (Pierce Endogen, Rockford, Ill.; catalogue number N301) were added to each well. The plates were incubated for 30 minutes at room temperature. The reaction was stopped by adding 100 μl/well of 0.18 M H2SO4. The optical densities at 450 mu and 530 nm were read on an ELISA plate reader and the difference (OD 450-OD 530) calculated.
For orientation: In an ELISA, binding on a coated surface is turned into a signal by an enzyme label.

Regarding “Sigma BSA (untreated): Bovine serum albumin from Sigma (ELIS grade, low fatty acid and IgG), used as received [reference compound]”, the “Inhibition of IL-8 release as compared to the positive control (in words)” value is “did not significantly inhibit the release of IL-8”. In addition, under “1.0 mg/ml sample”, the “IL-8” value amounted to 1048.1 pg/mL and the “Percent Inhibition Of IL-8 Release” value worked out at 6.3%.

B1: chicken egg yolk phosvitin (dephosphorylated): Phosvitin extracted from the yolks of chicken eggs and dephosphorylated; estimated about 20-50% dephosphorylated (protein, UniProt P02845 1112-1328, looked up)
Phosvitin: AEFGTEPDAKTSSSSSSASSTATSSSSSSASSPNRKKPMDEEENDQVKQARNKDASSSSRSSKSSNSSKRSSSKSSNSSKRSSSSSSSSSSSSRSSSSSSSSSSNSKSSSSSSKSSSSSSRSRSSSKSSSSSSSSSSSSSSKSSSSRSSSSSSKSSSHHSHSHHSGHLNGSSSSSSSSRSVSHHSHEHHSGHLEDDSSSSSSSSVLSKIWGRHEIYQ
modifications: Phosvitin partially dephosphorylated
notes: Phosvitin extracted from the yolks of chicken eggs and dephosphorylated; estimated about 20-50% dephosphorylated
On to B1, for which the “Inhibition of IL-8 release as compared to the positive control (in words)” value was “inhibited IL-8 release as compared to the positive control in a dose-dependent fashion”. For the same molecule, for the setting “0.1 mg/ml sample”, the “IL-8” value was 1024.7 pg/mL and the “Percent Inhibition Of IL-8 Release” value is 6.4%. Moreover, for the setting “0.5 mg/ml sample”, the “IL-8” value stood at 830.4 pg/mL and the “Percent Inhibition Of IL-8 Release” value is on record as 25.8%. In addition, for the setting “1.0 mg/ml sample”, the “IL-8” value turned out to be 686.9 pg/mL and the “Percent Inhibition Of IL-8 Release” value was 38.6%.

B2: Sigma phosvitin (untreated): Chicken phosvitin purchased from Sigma Chemical Co., used as received without dephosphorylation (protein, UniProt P02845 1112-1328, looked up)
Phosvitin: AEFGTEPDAKTSSSSSSASSTATSSSSSSASSPNRKKPMDEEENDQVKQARNKDASSSSRSSKSSNSSKRSSSKSSNSSKRSSSSSSSSSSSSRSSSSSSSSSSNSKSSSSSSKSSSSSSRSRSSSKSSSSSSSSSSSSSSKSSSSRSSSSSSKSSSHHSHSHHSGHLNGSSSSSSSSRSVSHHSHEHHSGHLEDDSSSSSSSSVLSKIWGRHEIYQ
modifications: Phosvitin
notes: Chicken phosvitin purchased from Sigma Chemical Co., used as received without dephosphorylation
In the case of B2, the “Inhibition of IL-8 release as compared to the positive control (in words)” value was “did not significantly inhibit the release of IL-8”. In addition, under “1.0 mg/ml sample”, the “IL-8” value was found to be 1153.6 pg/mL and the “Percent Inhibition Of IL-8 Release” value came out at 0%.
